In patent US20210355207A1 (ACADEMIA SINICA, published 2021):

Assays:
[1] = target: T1, synthetic peptide LKNQNQELPEDVNPAKKENYLSEQD (SEQ ID NO: 2); experiment: ELISA screen of hybridoma clones on peptide
T1 construct: Used to screen the hybridoma clones by ELISA; also called another synthetic peptide
T1 peptide: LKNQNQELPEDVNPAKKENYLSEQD

[2] = target: T2, human advillin-flag (hAvil-flag), exogenously expressed in 293 cells (human, UniProt O75366 1-819); experiment: western blot of lysates of 293 cells transfected with hAvil-flag or vector control
T2 construct: also called exogenous expression of human advillin clone; expression plasmid of human advillin; not shown: flag tag from the p3xFLAG-CMV14 vector
T2 sequence (looked up): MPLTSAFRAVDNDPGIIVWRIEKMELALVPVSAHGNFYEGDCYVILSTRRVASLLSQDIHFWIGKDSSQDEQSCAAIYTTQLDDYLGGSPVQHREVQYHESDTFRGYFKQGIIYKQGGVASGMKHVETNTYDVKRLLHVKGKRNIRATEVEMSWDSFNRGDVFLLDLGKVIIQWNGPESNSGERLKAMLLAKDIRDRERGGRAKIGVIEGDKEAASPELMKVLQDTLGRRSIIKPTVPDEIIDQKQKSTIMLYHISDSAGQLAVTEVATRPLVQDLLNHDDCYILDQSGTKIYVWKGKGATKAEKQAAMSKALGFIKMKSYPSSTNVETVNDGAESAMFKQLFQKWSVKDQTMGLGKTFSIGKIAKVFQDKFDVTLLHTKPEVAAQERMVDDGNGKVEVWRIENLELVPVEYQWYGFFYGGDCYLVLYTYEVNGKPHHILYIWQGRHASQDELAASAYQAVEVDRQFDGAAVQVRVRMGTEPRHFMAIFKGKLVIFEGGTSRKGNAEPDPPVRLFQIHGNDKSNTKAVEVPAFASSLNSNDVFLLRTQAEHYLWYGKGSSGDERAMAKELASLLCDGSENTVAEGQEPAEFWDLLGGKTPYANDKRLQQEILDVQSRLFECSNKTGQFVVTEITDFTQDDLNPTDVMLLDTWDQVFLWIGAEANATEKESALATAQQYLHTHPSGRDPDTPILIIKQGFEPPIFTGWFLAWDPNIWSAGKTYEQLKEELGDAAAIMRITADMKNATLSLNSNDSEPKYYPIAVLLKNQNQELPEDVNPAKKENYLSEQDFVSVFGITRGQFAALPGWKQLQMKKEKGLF
Excerpt: FIG. 6 The monoclonal antibody of human advillin specifically recognized exogenous expression of human advillin in 293 cells. Human advillin clone was tagged with flag, and the construct of human advillin-flag (hAvil-flag) or vector control (flag) were transfected into 293 cells. The lysates were detected with the monoclonal antibody of human advillin and flag antibody respectively. The molecular weight of human advillin is predicted as 92 KDa and the detected signals were corresponded to predicted size of hAvil-flag around 100 KDa. The top signal is supposed as aggregated forms as detected in the flag-antibody recognized signal.
Primary antibodies used in western blot were rabbit polyclonal anti-mouse advillin (1 μg/ml), mouse monoclonal anti-human advillin, and rabbit anti-albumin (1:1000, both GeneTex, San Antonio, Tex., USA). […] Cerebrospinal fluid (CSF) samples or protein from cell lysates separated by SDS-PAGE were transferred onto PVDF membranes by using a Mini Trans-Blot Electrophoretic Transfer Cell (Bio-rad, CA, USA). […] Enhanced chemiluminescence (ECL) involved the Immobilon ECL Kit (Millipore, MA, USA) and signals were detected by using the BioSpectrum Auto Imaging System (UVP, CA, USA). […]

- binding result [1]: binds
- binding result [2]: binds
B1: monoclonal antibody of human advillin hAvil, produced by the hybridoma YCC-S1 (antibody, V domains shown)
VH: EVKLEESGGGLVQPGGSLKLSCVASGFAFSNSWMSWVRQSPEKGLEWVAEIRLKSDNYASHYAESVKGRFTISRDDSKSRLYLQMNALRAEDTGIYYCSDGTWFTYWGQGTLVTVST
VL: DIVMSQSPSSLAVSVGEKVTMNCKSSQSLLYRANQKNYLAWYQQKPGQSPKLLIYWASTRESGVPDRFTGSGSGTDFTLTISSVKAEDLAVYYCQQYYSHPFTFGSGTKLKIK
notes: also called mouse monoclonal anti-human advillin; anti-advillin antibody
